# Assay results taken from patent publication US20040185113A1, “Fine inorganic particles having drug included therein, method for preparation thereof and pharmaceutical preparation comprising fine inorganic particles having drug included therein” (priority 2001, published 2004).
# Experiment: G-CSF release test and stability of G-CSF in buffer solution at room temperature
# Type: physicochemical
# Settings: 1% BSA/Tris-HCl (pH 7.2), ELISA, FIG. 4
# Description: Six hundred fifty μl of 5M CaCl2 was admixed with 250 μl of 500 μg/ml G-CSF with stirring. Then 2.5 ml of 1M Na2CO3 was added and stirred for 10 minutes to prepare CaCO3 particles. Five ml of H2O was added to the particles, and the mixture was centrifuged at 2,000 rpm for 5 min to remove the supernatant. To the resultant precipitate, 12.5 ml of H2O was added, and 1 ml of the mixture was taken into a 2.0 ml test tube. The test tube and content was centrifuged at 2,000 rpm for 5 min to remove the supernatant which was used for ELISA. To the resultant precipitate, 1 ml of 1% BSA/Tris—HCl (pH 7.2) was added and shaken at room temperature. The mixture was centrifuged every 24 hours at 2,000 rpm for 5 min to collect the supernatant and to the resultant precipitate 1 ml of 1% BSA/Tris—HCl (pH 7.2) was added again, and this operation was continued for 7 days. The last precipitate was dissolved with hydrochloric acid and used for ELISA. G-CSF was assayed using ELISA Kit manufactured by IBL Co. and the total (cumulative) amount of G-CSF released from the G-CSF-encapsulating CaCO3 preparation was shown. […] A part of the mixture was collected every 24 hours, and the amount of G-CSF was determined by ELISA to examine the stability of G-CSF at room temperature.
molecule,measurement,value
"free G-CSF: granulocyte colony-stimulating factor (Chugai Pharmaceutical) in 1% BSA/Tris-HCl solution, control (protein, UniProt P09919 31-207, looked up) Granulocyte …: TPLGPASSLPQSFLLKCLEQVRKIQGDGAALQEKLVSECATYKLCHPEELVLLGHSLGIPWAPLSSCPSQALQLAGCLSQLHSGLFLYQGLLQALEGISPELGPTLDTLQLDVADFATTIWQQMEELGMAPALQPTQGAMPAFASAFQRRAGGVLVASHLQSFLEVSYRVLRHLAQP",stability of G-CSF,unstableness
